Reference: US20160175384A1 (published 2016)
Blank lines part the entries; values can stand above or below the binder they belong to. Square brackets hold non-standard residues; d marks the D form. Side chains are listed from the residue outwards. * marks the point of attachment. IR800CW = near-infrared dye IRDye800CW (maleimide); Cy5 = Cy5 fluorescent dye (maleimide); d2Nal = N[C@H](Cc1ccc2ccccc2c1)C(=O)O; Butanoyl(4-Ph) = O=C(CCCc1ccccc1)*; Butanoyl(4-ethynyl) = C#CCCCC(=O)*; hPhe = N[C@@H](CCc1ccccc1)C(=O)O; Nle = CCCC[C@H](N)C(=O)O; Mpa = O=C(O)CCS

Legend:
[1] = molecular target: T1, human melanocortin 1 receptor (human, UniProt Q01726 1-317); assay: competitive binding vs Eu-NDP-alpha-MSH, time-resolved fluorescence, HCT116/hMC1R cells
T1 construct: whole, on cells; also called hMC1R; MC1R
T1 sequence (Q01726 whole entry): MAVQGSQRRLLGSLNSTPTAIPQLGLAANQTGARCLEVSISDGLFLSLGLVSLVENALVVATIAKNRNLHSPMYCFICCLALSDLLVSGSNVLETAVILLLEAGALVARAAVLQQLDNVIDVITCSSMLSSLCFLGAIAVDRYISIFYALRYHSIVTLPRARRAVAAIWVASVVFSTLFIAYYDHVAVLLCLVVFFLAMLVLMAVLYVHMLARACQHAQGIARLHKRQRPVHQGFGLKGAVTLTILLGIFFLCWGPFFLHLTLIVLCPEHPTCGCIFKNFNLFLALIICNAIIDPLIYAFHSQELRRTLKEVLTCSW
Procedure: (§1) Competitive binding assays were performed using HCT116/hMC1R cells and HEK293/hMC4R or hMC5R as previously described, with slight modifications. HCT116/hMC1R cells were plated in black PerkinElmer 96-well plates and HEK293/hMC4R and HEK293/hMC5R cells were plated on SigmaScreen Poly-D-Lysine Coated Plates (SigmaAldrich), all at a density of 10,000-30,000 cells/well. Poly-D-Lysine Coated Plates contain a PDL polymer coating that creates a uniform positive charge at the surface of the plastic, thereby facilitating cell attachment, growth and differentiation. […] Both labeled and non-labeled ligands were diluted in binding media (DMEM, 1 mM 1,10-phenanthroline, 200 mg/L bacitracin, 0.5 mg/L leupeptin, 0.3% BSA). In the case of the triblock polymer micelle solutions, micelles were allowed to equilibrate in solution for a period of 30 min prior to cell addition. Cells were incubated with labeled and non-labeled ligands for 1 hour at 37° C. Following incubation, cells were washed three times with wash buffer (50 mM Tris-HCl, 0.2% BSA, 30 mM NaCl) and 50 µL of enhancement solution (PerkinElmer) was added to each well. Cells were incubated for an additional 30 min at 37° C. prior to reading. […] Competition curves were analyzed with GraphPad Prism software using the sigmoidal dose-response (variable slope) classical equation for nonlinear regression analysis.

[2] = molecular target: T1, human melanocortin 1 receptor; assay: cell-based or functional assay
[3] = molecular target: MC5R expressed in the kidneys of the xenograft-bearing mice; assay: cell-based or functional assay
MC5R expressed in the kidneys of the xenograft-bearing mice, sequence (P41149 whole entry): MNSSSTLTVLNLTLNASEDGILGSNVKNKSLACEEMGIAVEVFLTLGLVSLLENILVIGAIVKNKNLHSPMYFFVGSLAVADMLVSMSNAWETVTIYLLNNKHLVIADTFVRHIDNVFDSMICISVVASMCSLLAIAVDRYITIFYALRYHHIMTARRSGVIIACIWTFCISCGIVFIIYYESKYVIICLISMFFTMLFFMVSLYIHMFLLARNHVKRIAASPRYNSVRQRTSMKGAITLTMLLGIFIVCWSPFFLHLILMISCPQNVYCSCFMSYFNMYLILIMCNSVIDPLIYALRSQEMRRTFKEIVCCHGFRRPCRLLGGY

[4] = molecular target: T1, human melanocortin 1 receptor; assay: competition binding vs Eu-NDP-a-MSH, time-resolved fluorescence, A375/hMC1R cells
[5] = molecular target: T1, human melanocortin 1 receptor; assay: competitive binding vs Eu-NDP-alpha-MSH, HCT116/hMC1R cells
[6] = molecular target: T2, human melanocortin 5 receptor (human, UniProt P33032 1-325); assay: competitive binding vs Eu-NDP-alpha-MSH, time-resolved fluorescence, HEK293/hMC5R cells
T2 construct: whole, on cells; also called hMC5R; MC5R
T2 sequence (P33032 whole entry): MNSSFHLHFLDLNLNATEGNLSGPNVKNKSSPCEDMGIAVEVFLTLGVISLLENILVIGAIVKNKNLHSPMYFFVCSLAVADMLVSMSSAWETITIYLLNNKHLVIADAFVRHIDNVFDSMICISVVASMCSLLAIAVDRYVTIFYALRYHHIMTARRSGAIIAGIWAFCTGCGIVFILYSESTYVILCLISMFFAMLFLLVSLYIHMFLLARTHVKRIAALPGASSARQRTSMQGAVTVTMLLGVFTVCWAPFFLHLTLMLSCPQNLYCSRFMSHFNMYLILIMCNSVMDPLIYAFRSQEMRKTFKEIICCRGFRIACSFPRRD
Procedure: as §1

[7] = molecular target: T1, human melanocortin 1 receptor; assay: ratio of Ki values (MC5R over MC1R) from Eu-NDP-alpha-MSH competitive binding
[8] = molecular target: T1, human melanocortin 1 receptor; assay: ratio of Ki values (MC4R over MC1R) from Eu-NDP-alpha-MSH competitive binding
[9] = molecular target: T3, human melanocortin 4 receptor (human, UniProt P32245 1-332); assay: competitive binding vs Eu-NDP-alpha-MSH, time-resolved fluorescence, HEK293/hMC4R cells
T3 construct: whole, on cells; also called hMC4R; MC4R
T3 sequence (P32245 whole entry): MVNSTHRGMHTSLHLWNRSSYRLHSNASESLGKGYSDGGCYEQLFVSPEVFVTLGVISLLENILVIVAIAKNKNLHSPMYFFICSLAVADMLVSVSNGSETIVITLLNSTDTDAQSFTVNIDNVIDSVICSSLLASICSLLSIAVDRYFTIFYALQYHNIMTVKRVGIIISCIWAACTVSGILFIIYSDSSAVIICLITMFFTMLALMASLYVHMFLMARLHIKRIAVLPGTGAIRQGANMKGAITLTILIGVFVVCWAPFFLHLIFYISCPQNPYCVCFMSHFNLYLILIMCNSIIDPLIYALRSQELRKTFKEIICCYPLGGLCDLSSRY
Procedure: as §1

B1: 4-phenylbutyryl-His-DPhe-Arg-Trp-NH2 (peptide)
peptide: {Butanoyl(4-Ph)}-H[dF]RW-NH2
notes: Synthetic peptidomimetic; also called compound 1
Ki [1]: 0.17 nM

B2: 4-phenylbutyryl-His-DPhe-Arg-Trp-Gly-Lys(Mpr-IR800CW)-NH2 (peptide)
peptide: {Butanoyl(4-Ph)}-H[dF]RWGK([Mpa-IR800CW])-NH2
notes: Near-infrared dye conjugate of the MC1R ligand; also called MC1RL-800; MC1RL-800 probe
probe-related fluorescence signal in A375/MC1R tumors after co-injection of 0.25 ug NDP-a-MSH, relative to the unblocked tumor, 2 hr after injection [2]: 1.54 fold
probe-related fluorescence signal in A375 tumor after co-injection of 0.25 ug NDP-a-MSH, relative to the unblocked tumor, 2 hr after injection [2]: 1.4 fold
renal uptake of MC1RL-800 after co-injection of 1 nmol/kg MC4R/5R-selective ligand (SEQ ID NO:10), compared to control animals, 2 hr after injection [3]: 1.56 fold
Ki [4]: 0.4 nM

B3: 4-phenylbutyryl-His-DPhe-Arg-Trp-Gly-Lys(hex-5-ynoyl)-NH2 (peptide)
peptide: {Butanoyl(4-Ph)}-H[dF]RWGK(Butanoyl(4-ethynyl))-NH2
SMILES: C#CCCCC(=O)NCCCC[C@H](NC(=O)CNC(=O)[C@H](Cc1c[nH]c2ccccc12)NC(=O)[C@H](CCCNC(=N)N)NC(=O)[C@@H](Cc1ccccc1)NC(=O)[C@H](Cc1c[nH]cn1)NC(=O)CCCc1ccccc1)C(N)=O
notes: Synthetic; alkyne-functionalised form of compound 1; also called compound 4
Ki [5]: 1.17 nM
Ki [1]: 0.24 nM

B5: H-Tyr-Val-Nle-Gly-His-DNal(2′)-Arg-DTrp-Asp-Arg-Phe-Gly-NH2 (peptide)
peptide: YVLGHXRWDRFG
modifications: Nle; DNal(2′); DTrp; C-terminal amide (NH2)
notes: Synthetic; also called compound 5; ligand 5
Ki [6]: 0.76 nM

The remaining lines, values ahead:

Ki [6]: 58.2 nM
Ki [1]: 1.77 nM
Binder: Ac-[hPhe]H[dF]RW-NH2 (Synthetic; also called compound 2) [Ac-Homophenylalanine-His-DPhe-Arg-Trp-NH2]

Ki [6]: 3.9 nM
Ki [1]: 4.19 nM
1R/5R (selectivity ratio against MC5R) [7]: 0.93
1R/4R (selectivity ratio against MC4R) [8]: 1.05
Ki [9]: 4.4 nM
B4: H-Lys(hex-5-ynoyl)Tyr-Val-Nle-Gly-His-DNal(2′)-Arg-DPhe-Asp-Arg-Phe-Gly-NH2 (peptide)
peptide: H-K(Butanoyl(4-ethynyl))YV[Nle]GH[d2Nal]R[dF]DRFG-NH2
SMILES: C#CCCCC(=O)NCCCC[C@H](N)C(=O)N[C@@H](Cc1ccc(O)cc1)C(=O)N[C@H](C(=O)N[C@@H](CCCC)C(=O)NCC(=O)N[C@@H](Cc1c[nH]cn1)C(=O)N[C@H](Cc1ccc2ccccc2c1)C(=O)N[C@@H](CCCNC(=N)N)C(=O)N[C@H](Cc1ccccc1)C(=O)N[C@@H](CC(=O)O)C(=O)N[C@@H](CCCNC(=N)N)C(=O)N[C@@H](Cc1ccccc1)C(=O)NCC(N)=O)C(C)C
notes: Synthetic; alkyne analogue of ligand 7; also called compound 8; ligand 8

Ki [6]: 0.71 nM
Ki [1]: 5.64 nM
1R/5R (selectivity ratio against MC5R) [7]: 0.13
1R/4R (selectivity ratio against MC4R) [8]: 0.13
Ki [9]: 0.77 nM
B6: H-Tyr-Val-Nle-Gly-His-DNal(2′)-Arg-DPhe-Asp-Arg-Phe-Gly-NH2 (peptide)
peptide: H-YV[Nle]GH[d2Nal]R[dF]DRFG-NH2
SMILES: CCCC[C@H](NC(=O)[C@@H](NC(=O)[C@@H](N)Cc1ccc(O)cc1)C(C)C)C(=O)NCC(=O)N[C@@H](Cc1c[nH]cn1)C(=O)N[C@H](Cc1ccc2ccccc2c1)C(=O)N[C@@H](CCCNC(=N)N)C(=O)N[C@H](Cc1ccccc1)C(=O)N[C@@H](CC(=O)O)C(=O)N[C@@H](CCCNC(=N)N)C(=O)N[C@@H](Cc1ccccc1)C(=O)NCC(N)=O
notes: Synthetic; also called compound 7; ligand 7

Ki [4]: 0.3 nM
B7: MC1R-Cy5 probe (peptide)
peptide: {Butanoyl(4-Ph)}-H[dF]RWGK([Mpa-Cy5])-NH2
notes: also called Cy5 conjugated ligand; MC1R-635 probe
